# Measured values: the RNAGym collection of RNA variant scans (doi:10.1073/pnas.2313332121)
# B1: TPR t1 (parent)
# chain: GACCAAUCUGCCCUCAGAGCUCGAGAACAUCUUCGGAUGCAGAGGAGGCAGGCUUCGGUGGCGCGAUAGCGCCAACGUCCUCAACCUCCAAUGCAUCCCACCACAUGAUGAUGCCUGAAGAGCCUUGGUUUUUUG
# Variants of: B1
# Assay: polymerase ribozyme fitness, log enrichment relative to wild type (log ratio); higher = more active; in vitro selection for triplet polymerase activity
# Procedure, shortened: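 PCR was used to build mutant libraries for each subunit of a heterodimeric triplet polymerase ribozyme, which were then transcribed. A single in vitro selection round, in triplicate, used a frozen incubation at −7 °C and recovered extended constructs by gel excision, streptavidin beads and RT-PCR. Fitness is the logarithm of genotype enrichment relative to wild-type enrichment, averaged over replicates with inverse-variance weights. The logarithm is base 2, and after Illumina sequencing only genotypes with ≥10 input reads and ≥1 read per output were kept.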
row,Variant,polymerase ribozyme fitness (log ratio)
1,C62U C82U,1.12
2,C62G U131A,-1.42
3,G60C A84C,-0.975
4,G61A C88U C89A,-1.82
5,G61A C88G U129A,-1.82
6,C62U U131G,-0.5
7,C62G U87C A111G,-3.32
8,C62G C73U A83G,-4.25
9,G61A C97G C124U,-2.04
10,G60C G127A,-1.59
11,G61A C73U U78A,-0.265
12,G61U U133A,-0.172
13,G61C G65A C82U,-7.8
14,G61A A95U A119U G120C C123A,1.22
15,C62U A95U,-2.57
16,G61U U129G,-1.79
17,C62U U78C C94A,-1.92
18,G60A G93C U132A,-1.25
19,G61U G93A,0.0678
20,G60C A66G C82A,-1.84
21,G60C C82A A105G U131A,-4.31

row,Variant,polymerase ribozyme fitness (log ratio)
1,G60U C124A,1.7
2,G61U A66U U112A,0.256
3,G60A U112G G120A,-2.56
4,C62U A74U U78A,-0.615
5,G61A U92G G113U,-4.27
6,G61A C79U C104A C124A,0.783
7,G60U A121U C124A U131G,-3.49
8,G61C A100U G120C G127U,-1.07
9,G61A U106C G122A,-0.878
10,G61C U78A U116G,-1.8
11,G61U U78G C79U G122U,0.33
12,G60U U106G,-1.17
13,C62A C72U A75C C85A U129C,-2.55
14,C62U U116A G128A,-5.25
15,C62A A90G,-0.841
16,G61C C79A C80U,-4.17
17,C62U C115G U129A,-3.05
18,G61A G65A,-3.94
19,C62A U87C,-0.344
20,C62U G69C,-3.19
21,G61U G63A,-4.12

row,Variant,polymerase ribozyme fitness (log ratio)
1,G60A G61U G127C,-5.15
2,C62G A121U,0.647
3,G60A G77A C82G,-0.994
4,G61A A74C G120U,-2.24
5,C62U A95C G113U G135A,-3.24
6,G60C A84U U116C,-0.854
7,G61C U92C,-2.59
8,G60U C70U,-2.43
9,G61A U87G,0.506
10,G61U U87G U106A,-0.129
11,G60C C124A,1.07
12,G60C C124G,0.305
13,G61U G113U,-1.12
14,G60U C94G G110C G117A,-7.56
15,G60C U81C U116A,-2.88
16,C62U G110C,-3.93
17,G60C A111U U116C,-5.57
18,C62U A84G C101A,-1.66
19,C62A C97U,-1.52
20,G60U C79U U81A C97A U106A,-6.56
21,G61C C102U,-3.06

row,Variant,polymerase ribozyme fitness (log ratio)
1,G61A C89A A90U A91G,-1.77
2,G61A U106C,0.151
3,C62A C79A G117C,-6
4,G60U G61A U106C G128A U130A,-4.75
5,C62A G120A,-0.339
6,C62A G120U,0.191
7,G60C G117A,-0.79
8,G60U C82U G110U,-1.72
9,G61A U129C,0.132
10,G61U U131C,0.233
11,G61C G77U U112A,-2.37
12,C62U G128C,-3.37
13,C62G A95U,-2.37
14,G61U C73A U78A,-1.43
15,G60U C101U A111C,0.104
16,G60C A83G,-1.24
17,G60C A83C,-0.586
18,G61A C114A,-0.372
19,G61A C114U,-1.49
20,G60U C115U,-0.124
